From US20230114801A1 (SYSTIMMUNE, published 2023)

Legend:
Assay in all cases: BLI (Octet), binder on AHC sensor, 100 nM human antigen, 1:1 fit
human CD3 = molecular target: T1, human CD3 (human, UniProt P07766 23-126; P04234 22-105)
T1 construct: also called His-tagged human CD3; human CD3 (Acro CDD-H52W1)

human HER3 = molecular target: T2, human HER3 (human, UniProt P21860 20-643)
T2 construct: Soluble antigen in Octet; bought; also called human HER3 (Acro ER3-H5223)

human EGFR = molecular target: T3, human EGFR (human, UniProt P00533 25-645, limits assumed)
T3 construct: Soluble antigen in Octet; construct not described

| Binder | Kd (human CD3) [nM] | Kd (human HER3) [nM] | Kd (human EGFR) [nM] |
| --- | --- | --- | --- |
| SI-75X2 (bispecific antibody, human IgG1, kappa, L234A L235A, bi-miniGNC; D2 αHER3, D3 αCD3 (Fab); also called bi-miniGNC (SI-75X2)) chain 1: EVQLVESGGGLVQPGGSLRLSCAASGFTISTNAMSWVRQAPGKGLEWIGVITGRDITYYASWAKGRFTISRDNSKNTLYLQMNSLRAEDTAVYYCARDGGSSAITSNNIWGQGTLVTVSSASTKGPSVFPLAPSSKSTSGGTAALGCLVKDYFPEPVTVSWNSGALTSGVHTFPAVLQSSGLYSLSSVVTVPSSSLGTQTYICNVNHKPSNTKVDKRVEPKSCDKTHTCPPCPAPEAAGGPSVFLFPPKPKDTLMISRTPEVTCVVVDVSHEDPEVKFNWYVDGVEVHNAKTKPREEQYNSTYRVVSVLTVLHQDWLNGKEYKCAVSNKALPAPIEKTISKAKGQPREPQVYTLPPSRDELTKNQVSLSCAVKGFYPSDIAVEWESNGQPENNYKTTPPVLDSDGSFFLVSKLTVDKSRWQQGNVFSCSVMHEALHNHYTQKSLSLSPG chain 2: QSALTQPASVSGSPGQSITISCTGTSSDVGGYNFVSWYQQHPGKAPKLMIYDVSDRPSGVSDRFSGSKSGNTASLIISGLQADDEADYYCSSYGSSSTHVIFGGGTKVTVLGGGGSGGGGSGGGGSGGGGSQVQLQESGGGLVKPGGSLSLSCAASGFTFSSYWMSWVRQAPGKGLEWVANINRDGSASYYVDSVKGRFTISRDDAKNSLYLQMNSLRAEDTAVYYCARDRGVGYFDLWGRGTLVTVSSGGGGSGGGGSDVVMTQSPSTLSASVGDRVTINCQASESISSWLAWYQQKPGKAPKLLIYEASKLASGVPSRFSGSGSGTEFTLTISSLQPDDFATYYCQGYFYFISRTYVNSFGGGTKVEIKRTVAAPSVFIFPPSDEQLKSGTASVVCLLNNFYPREAKVQWKVDNALQSGNSQESVTEQDSKDSTYSLSSTLTLSKADYEKHKVYACEVTHQGLSSPVTKSFNRGECGGDKTHTCPPCPAPEAAGGPSVFLFPPKPKDTLMISRTPEVTCVVVDVSHEDPEVKFNWYVDGVEVHNAKTKPREEQYNSTYRVVSVLTVLHQDWLNGKEYKCAVSNKALPAPIEKTISKAKGQPREPQVYTLPPSRDELTKNQVSLWCLVKGFYPSDIAVEWESNGQPENNYKTTPPVLDSDGSFFLYSKLTVDKSRWQQGNVFSCSVMHEALHNRFTQKSLSLSPG | 27.8 | 162 |  |
| SI-75X1 (bispecific antibody, human IgG1, kappa, L234A L235A, bi-miniGNC; D1 αEGFR, D3 αCD3 (Fab)) chain 1: EIVLTQSPSTLSVSPGERATFSCRASQSIGTNIHWYQQKPGKPPRLLIKYASESISGIPDRFSGSGSGTEFTLTISSVQSEDFAVYYCQQNNNWPTTFGPGTKLTVLGGGGSGGGGSGGGGSGGGGSQVQLQQSGPGLVKPSETLSITCTVSGFSLTNYGVHWIRQAPGKGLEWLGVIWSGGNTDYNTPFTSRFTITKDNSKNQVYFKLRSVRADDTAIYYCARALTYYDYEFAYWGQGTLVTVSSGGGGSGGGGSEVQLVESGGGLVQPGGSLRLSCAASGFTISTNAMSWVRQAPGKGLEWIGVITGRDITYYASWAKGRFTISRDNSKNTLYLQMNSLRAEDTAVYYCARDGGSSAITSNNIWGQGTLVTVSSASTKGPSVFPLAPSSKSTSGGTAALGCLVKDYFPEPVTVSWNSGALTSGVHTFPAVLQSSGLYSLSSVVTVPSSSLGTQTYICNVNHKPSNTKVDKRVEPKSCDKTHTCPPCPAPEAAGGPSVFLFPPKPKDTLMISRTPEVTCVVVDVSHEDPEVKFNWYVDGVEVHNAKTKPREEQYNSTYRVVSVLTVLHQDWLNGKEYKCAVSNKALPAPIEKTISKAKGQPREPQVYTLPPSRDELTKNQVSLSCAVKGFYPSDIAVEWESNGQPENNYKTTPPVLDSDGSFFLVSKLTVDKSRWQQGNVFSCSVMHEALHNHYTQKSLSLSPG chain 2: DVVMTQSPSTLSASVGDRVTINCQASESISSWLAWYQQKPGKAPKLLIYEASKLASGVPSRFSGSGSGTEFTLTISSLQPDDFATYYCQGYFYFISRTYVNSFGGGTKVEIKRTVAAPSVFIFPPSDEQLKSGTASVVCLLNNFYPREAKVQWKVDNALQSGNSQESVTEQDSKDSTYSLSSTLTLSKADYEKHKVYACEVTHQGLSSPVTKSFNRGECGGDKTHTCPPCPAPEAAGGPSVFLFPPKPKDTLMISRTPEVTCVVVDVSHEDPEVKFNWYVDGVEVHNAKTKPREEQYNSTYRVVSVLTVLHQDWLNGKEYKCAVSNKALPAPIEKTISKAKGQPREPQVYTLPPSRDELTKNQVSLWCLVKGFYPSDIAVEWESNGQPENNYKTTPPVLDSDGSFFLYSKLTVDKSRWQQGNVFSCSVMHEALHNRFTQKSLSLSPG | 24 |  | 8.11 |
